Measurements reported in patent US20080248043A1 (Amgen, published 2008).
Changes are numbered by the printed parent chain.

B1: 3C7 (antibody, V domains shown)
VH: QVQLVESGGGVVQPGTSLRLSCAASGFTFSSYGIHWVRQAPGKGLEWVAVIWYDGSNKFYADSVKGRFTISRDNSKNTLYLQMNSLRAEDTAVYYCARDPLGYCSSTSCSYFDYWGQGTLVTVSS
VL: DIQMTQSPSSVSASVGDRVTITCRASQGISNWLAWYQQKPGKAPKLLIYAASSLQSGVPSRFSGSGSGTDFTLTIRSLQPEDFATYYCQQANNFPLTFGGGTKVEIK
B2: 6B1 (antibody, V domains shown)
VH: B1 VH with Y60H
VL: B1 VL with R76S
B3: 1B5 (antibody, V domains shown)
VH: QVQLVESGGGVVQPGRSLRLSCAASGFTFSSYGMHWVRQAPGKGLEWVAVIWYDGSNKYYADSVKGRFTISRDNSKNTLYLQMNSLRAEDTAVYYCARGDFYWFDPWGQGTLVTVSS
VL: DIQMTQSPSSLSASVGDRVTITCRASQGIRSDLGWYQQRPGKTPKRLIYAASSLQSGVPSRFSGSGSGTEFTLTISSLQPEDFATYYCQQYNSYPLTFGGGTKVEIK
B4: 3H12 (antibody, V domains shown)
VH: QVQLQESGPGLVKPSETLSLTCTVSDGSISSFYWSWIRQPPGKGLEWIGYIYYSGSTNYNPSLKSRVTISVDTSKNQFSLKLSSVTAADTAVYYCARDYDILTGYSNYYGMDVWGQGTTVTVSS
VL: B3 VL with S31N, R39K, T43A, Q89L, Y91H, L96F, G100P, V104L, E105D
B5: 5E4 (antibody, V domains shown)
VH: QVHLVQSGAEVKKPGASVKVSCKASGYTFTGYYVHWVRQAPGQGLEWMGWINPNSGGTNYAQKFQGRVTMTRDTSISTAYMELSRLRSDDTAVYFCAGGRYLDYWGQGTLVTVSS
VL: B3 VL with S31N, R39K, T43A, Q89L, L96I, G100Q, K103R, V104L
B6: 5D6 (antibody, V domains shown)
VH: QVQLVQSGAEVKKPGASVKVSCKASGYTFTSYGISWVRQAPGQGLEWMGWISAYNGNTNYAQKLQGRVTMTTDTSTNTAYMELRSLRSDDTAVYYCAVGRYLDYWGQGTLVTVSS
VL: B3 VL with G28D, S31N, R39K, T43A, Q89L
B7: 3F3 (antibody, V domains shown)
VH: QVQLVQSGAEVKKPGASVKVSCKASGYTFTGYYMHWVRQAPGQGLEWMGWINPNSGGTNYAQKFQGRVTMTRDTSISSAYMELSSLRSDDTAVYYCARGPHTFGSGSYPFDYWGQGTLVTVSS
VL: B3 VL with K42N
B8: 4E2 (antibody, V domains shown)
VH: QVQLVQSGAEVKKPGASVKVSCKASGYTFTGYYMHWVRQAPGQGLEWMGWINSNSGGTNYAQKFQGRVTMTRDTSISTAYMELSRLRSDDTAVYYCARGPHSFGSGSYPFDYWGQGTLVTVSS
VL: B3 VL
B9: 5A5 (antibody, V domains shown)
VH: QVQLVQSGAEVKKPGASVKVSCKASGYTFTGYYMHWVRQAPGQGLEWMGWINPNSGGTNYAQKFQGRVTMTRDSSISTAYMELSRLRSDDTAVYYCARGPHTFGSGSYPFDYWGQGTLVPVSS
VL: B3 VL with M4L
B10: 6C2 (antibody, V domains shown)
VH: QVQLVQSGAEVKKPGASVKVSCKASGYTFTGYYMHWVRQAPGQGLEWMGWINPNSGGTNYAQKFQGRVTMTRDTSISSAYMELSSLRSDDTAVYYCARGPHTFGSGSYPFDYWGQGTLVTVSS
VL: B3 VL with K42N
B11: 4A10 (antibody, V domains shown)
VH: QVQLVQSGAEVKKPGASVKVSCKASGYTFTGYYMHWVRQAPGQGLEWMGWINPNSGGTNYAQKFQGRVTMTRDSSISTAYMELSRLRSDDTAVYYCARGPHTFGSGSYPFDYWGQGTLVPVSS
VL: B3 VL with M4L

target: S1-Ig (12-672) (SARS-CoV; human, UniProt P59594 12-672); assay: ELISA, coated S1-IgG 12-672

Binder	Reactivity S1-IgG (ELISA OD) [OD]
B1	1.09
B2	1.13
B3	0.463
B4	0.185
B5	0.735
B6	0.747
B7	1.07
B8	0.019
B9	0.986
B10	1
B11	1.01

target: T1, S1-Ig (318-510) (SARS-CoV; human, UniProt P59594 318-510); assay: ELISA on coated S1-Ig fragment

Binder	binding result
B3	no binding

target: S1-Ig (261-672) (SARS-CoV; human, UniProt P59594 261-672); assay: ELISA, coated S1-IgG 261-672

Binder	Reactivity S1-IgG (ELISA OD) [OD]
B1	0.357
B2	0.369
B3	0.11
B4	0.09
B5	0.298
B6	0.355
B7	0.325
B8	0.551
B9	0.337
B10	0.586
B11	0.567

target: S1-Ig (12-510) (SARS-CoV; human, UniProt P59594 12-510); assay: ELISA, coated S1-IgG 12-510

Binder	Reactivity S1-IgG (ELISA OD) [OD]
B1	1.42
B2	1.17
B3	1.29
B4	0.318
B5	1.2
B6	1.31
B7	1.35
B8	1.52
B9	1.19
B10	1.6
B11	1.52

target: T1, S1-Ig (318-510); assay: ELISA, coated S1-IgG 318-510

Binder	Reactivity S1-IgG (ELISA OD) [OD]
B1	2.19
B2	2.09
B3	0.191
B4	1.3
B5	2.27
B6	2.12
B7	1.89
B8	1.84
B9	2.31
B10	1.85
B11	1.79
